This is an account of results in PMC7026398, “Structural and functional insight into the effect of AFF4 dimerization on activation of HIV-1 proviral transcription” (Cell Discovery, 2020).

For the experiment, the target named is Flag-AFF1 F1063A+Y1145A+V1146A+V1152A, full length (UniProt P51825).

B1: Flag-AFF1 F1063A+Y1145A+V1146A+V1152A, full length (natural protein)
chain: MAAQSSLYNDDRNLLRIREKERRNQEAHQEKEAFPEKIPLFGEPYKTAKGDELSSRIQNMLGNYEEVKEFLSTKSHTHRLDASENRLGKPKYPLIPDKGSSIPSSSFHTSVHHQSIHTPASGPLSVGNISHNPKMAQPRTEPMPSLHAKSCGPPDSQHLTQDRLGQEGFGSSHHKKGDRRADGDHCASVTDSAPERELSPLISLPSPVPPLSPIHSNQQTLPRTQGSSKVHGSSNNSKGYCPAKSPKDLAVKVHDKETPQDSLVAPAQPPSQTFPPPSLPSKSVAMQQKPTAYVRPMDGQDQAPSESPELKPLPEDYRQQTFEKTDLKVPAKAKLTKLKMPSQSVEQTYSNEVHCVEEILKEMTHSWPPPLTAIHTPSTAEPSKFPFPTKDSQHVSSVTQNQKQYDTSSKTHSNSQQGTSSMLEDDLQLSDSEDSDSEQTPEKPPSSSAPPSAPQSLPEPVASAHSSSAESESTSDSDSSSDSESESSSSDSEENEPLETPAPEPEPPTTNKWQLDNWLTKVSQPAAPPEGPRSTEPPRRHPESKGSSDSATSQEHSESKDPPPKSSSKAPRAPPEAPHPGKRSCQKSPAQQEPPQRQTVGTKQPKKPVKASARAGSRTSLQGEREPGLLPYGSRDQTSKDKPKVKTKGRPRAAASNEPKPAVPPSSEKKKHKSSLPAPSKALSGPEPAKDNVEDRTPEHFALVPLTESQGPPHSGSGSRTSGCRQAVVVQEDSRKDRLPLPLRDTKLLSPLRDTPPPQSLMVKITLDLLSRIPQPPGKGSRQRKAEDKQPPAGKKHSSEKRSSDSSSKLAKKRKGEAERDCDNKKIRLEKEIKSQSSSSSSSHKESSKTKPSRPSSQSSKKEMLPPPPVSSSSQKPAKPALKRSRREADTCGQDPPKSASSTKSNHKDSSIPKQRRVEGKGSRSSSEHKGSSGDTANPFPVPSLPNGNSKPGKPQVKFDKQQADLHMREAKKMKQKAELMTDRVGKAFKYLEAVLSFIECGIATESESQSSKSAYSVYSETVDLIKFIMSLKSFSDATAPTQEKIFAVLCMRCQSILNMAMARCKKDIAIKYSRTLNKHFESSSKVAQAPSPCIASTGTPSPLSPMPSPASSVGSQSSAGSVGSSGVAATISTPVTIQNMTSSAATITSHALTAFDLWEQAEALTRKNKEFFARLSTNVCTLALNSSLVDLVHYTRQGFQQLQELTKTP
Molecule B1 returned an HIV-LTR-luciferase reporter in NH1 cells, overexpressed Flag-AFF1 mutant against wild-type AFF1 (fold less than wild-type AFF1) of 1.
